How the values were obtained:
[1] = tested on: HeLa Kyoto; test: solubility change mitosis vs G1/S (difference of NP-40 vs SDS log2 ratios) (log2 ratio difference); higher = more soluble in mitosis
[2] = tested on: HeLa Kyoto; test: solubility in G1/S (NP-40 vs SDS abundance) (log2 ratio); higher = more soluble; settings: cell cycle stage: G1/S
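Throughout, for solubility change mitosis vs G1/S (difference of NP-40 vs SDS log2 ratios): synchronized HeLa Kyoto cells (double thymidine block for G1/S, nocodazole release for mitosis), protein amounts in NP-40 versus SDS lysates quantified by mass spectrometry, three biological replicates.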
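Throughout, for solubility in G1/S (NP-40 vs SDS abundance): HeLa Kyoto cells arrested at G1/S by double thymidine block, proteins quantified by TMT10plex mass spectrometry in mild NP-40 versus SDS extracts, three biological replicates.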

ARNTL, sequence (chain, as listed by the source): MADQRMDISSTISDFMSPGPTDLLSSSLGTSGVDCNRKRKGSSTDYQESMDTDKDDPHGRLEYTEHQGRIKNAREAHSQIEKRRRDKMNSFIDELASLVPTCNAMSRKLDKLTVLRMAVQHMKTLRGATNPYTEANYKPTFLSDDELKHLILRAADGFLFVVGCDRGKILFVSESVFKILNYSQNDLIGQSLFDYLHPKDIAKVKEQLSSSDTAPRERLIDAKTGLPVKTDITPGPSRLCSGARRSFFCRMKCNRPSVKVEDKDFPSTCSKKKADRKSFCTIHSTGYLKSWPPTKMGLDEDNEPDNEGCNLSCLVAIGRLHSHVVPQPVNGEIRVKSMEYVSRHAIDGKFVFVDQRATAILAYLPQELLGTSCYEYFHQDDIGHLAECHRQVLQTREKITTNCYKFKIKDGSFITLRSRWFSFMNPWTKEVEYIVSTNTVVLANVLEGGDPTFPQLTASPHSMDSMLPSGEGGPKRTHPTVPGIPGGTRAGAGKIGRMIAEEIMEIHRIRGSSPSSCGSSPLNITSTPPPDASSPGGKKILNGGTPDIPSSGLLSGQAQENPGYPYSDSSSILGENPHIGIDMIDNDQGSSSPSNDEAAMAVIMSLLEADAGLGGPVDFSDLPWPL

Row | Substance | solubility change mitosis (log2) [1] | solubility in G1/S (log2) [2]
1 | MAAELVEAKNMVMSFRVSDLQMLLGFVGRSKSGLKHELVTRALQLVQFDCSPELFKKIKELYETRYAKKNSEPAPQPHRPLDPLTMHSTYDRAGAVPRTPLAGPNIDYPVLYGKYLNGLGRLPAKTLKPEVRLVKLPFFNMLDELLKPTELVPQNNEKLQESPCIFALTPRQVELIRNSRELQPGVKAVQVVLRICYSDTSCPQEDQYPPNIAVKVNHSYCSVPGYYPSNKPGVEPKRPCRPINLTHLMYLSSATNRITVTWGNYGKSYSVALYLVRQLTSSELLQRLKTIGVKHPELCKALVKEKLRLDPDSEIATTGVRVSLICPLVKMRLSVPCRAETCAHLQCFDAVFYLQMNEKKPTWMCPVCDKPAPYDQLIIDGLLSKILSECEDADEIEYLVDGSWCPIRAEKERSCSPQGAILVLGPSDANGLLPAPSVNGSGALGSTGGGGPVGSMENGKPGADVVDLTLDSSSSSEDEEEEEEEEEDEDEEGPRPKRRCPFQKGLVPAC [PIAS4] | -0.116 | 0.228
2 | MSHGPKQPGAAAAPAGGKAPGQHGGFVVTVKQERGEGPRAGEKGSHEEEPVKKRGWPKGKKRKKILPNGPKAPVTGYVRFLNERREQIRTRHPDLPFPEITKMLGAEWSKLQPTEKQRYLDEAEREKQQYMKELRAYQQSEAYKMCTEKIQEKKIKKEDSSSGLMNTLLNGHKGGDCDGFSTFDVPIFTEEFLDQNKAREAELRRLRKMNVAFEEQNAVLQRHTQSMSSARERLEQELALEERRTLALQQQLQAVRQALTASFASLPVPGTGETPTLGTLDFYMARLHGAIERDPAQHEKLIVRIKEILAQVASEHL [HMG20B] | -0.0403 | 0.616
3 | ARNTL | -0.179 | -0.0786
4 | MMPFGKISQQLCGVKKLPWSCDSRYFWGWLNAVFNKVDYDRIRDVGPDRAASEWLLRCGAMVRYHGQERWQKDYNHLPTGPLDKYKIQAIDATDSCIMSIGFDHMEGLEHVEKIRLCKCHYIEDDCLLRLSQLENLQKTILEMEIISCGNITDKGIIALRHLRNLKYLLLSDLPGVREKENLVQAFKTALPSLELKLQLK [ATP5S] | -0.136 | -0.164
5 | SOGA1 | 0.0556 | -0.0256
6 | MEPQVTLNVTFKNEIQSFLVSDPENTTWADIEAMVKVSFDLNTIQIKYLDEENEEVSINSQGEYEEALKMAVKQGNQLQMQVHEGHHVVDEAPPPVVGAKRLAARAGKKPLAHYSSLVRVLGSDMKTPEDPAVQSFPLVPCDTDQPQDKPPDWFTSYLETFREQVVNETVEKLEQKLHEKLVLQNPSLGSCPSEVSMPTSEETLFLPENQFSWHIACNNCQRRIVGVRYQCSLCPSYNICEDCEAGPYGHDTNHVLLKLRRPVVGSSEPFCHSKYSTPRLPAALEQVRLQKQVDKNFLKAEKQRLRAEKKQRKAEVKELKKQLKLHRKIHLWNSIHGLQSPKSPLGRPESLLQSNTLMLPLQPCTSVMPMLSAAFVDENLPDGTHLQPGTKFIKHWRMKNTGNVKWSADTKLKFMWGNLTLASTEKKDVLVPCLKAGHVGVVSVEFIAPALEGTYTSHWRLSHKGQQFGPRVWCSIIVDPFPSEESPDNIEKGMISSSKTDDLTCQQEETFLLAKEERQLGEVTEQTEGTAACIPQKAKNVASERELYIPSVDLLTAQDLLSFELLDINIVQELERVPHNTPVDVTPCMSPLPHDSPLIEKPGLGQIEEENEGAGFKALPDSMVSVKRKAENIASVEEAEEDLSGTQFVCETVIRSLTLDAAPDHNPPCRQKSLQMTFALPEGPLGNEKEEIIHIAEEEAVMEEEEDEEDEEEEDELKDEVQSQSSASSEDYIIILPECFDTSRPLGDSMYSSALSQPGLERGAEGKPGVEAGQEPAEAGERLPGGENQPQEHSISDILTTSQTLETVPLIPEVVELPPSLPRSSPCVHHHGSPGVDLPVTIPEVSSVPDQIRGEPRGSSGLVNSRQKSYDHSRHHHGSSIAGGLVKGALSVAASAYKALFAGPPVTAQPIISEDQTAALMAHLFEMGFCDRQLNLRLLKKHNYNILQVVTELLQLNNNDWYSQRY [NBR1] | 0.193 | -0.371
7 | MEAAETEAEAAALEVLAEVAGILEPVGLQEEAELPAKILVEFVVDSQKKDKLLCSQLQVADFLQNILAQEDTAKGLDPLASEDTSRQKAIAAKEQWKELKATYREHVEAIKIGLTKALTQMEEAQRKRTQLREAFEQLQAKKQMAMEKRRAVQNQWQLQQEKHLQHLAEVSAEVRERKTGTQQELDRVFQKLGNLKQQAEQERDKLQRYQTFLQLLYTLQGKLLFPEAEAEAENLPDDKPQQPTRPQEQSTGDTMGRDPGVSFKAVGLQPAGDVNLP [ZWINT] | 0.896 | -0.0767
8 | MENLPAVTTEEPTPMGRGPVGPSGGGSTRDQVRTVVMRPSVSWEKAGPEEAKAPVRGDEAPPARVAGPAAGTPPCQMGVYPTDLTLQLLAVRRKSRLRDPGLQQTLRGQLRLLENDSREMARVLGELSARLLSIHSDQDRIVVTFKTFEEIWKFSTYHALGFTHHCLANLLMDQAFWLLLPSEEEETAIQVHVDENALRLTHESLLIQEGPFFVLCPDHHVRVMTGPRDAGNGPQALRQASGAPQGEAAPETDSSPPSPSVSSEEVAVAAAPEPLIPFHQWALRIPQDPIDDAMGGPVMPGNPLMAVGLASALADFQGSGPEEMTFRGGDLIEILGAQVPSLPWCVGRHAASGRVGFVRSSLISMQGPVSELESAIFLNEEEKSFFSEGCFSEEDARQLLRRMSGTDVCSVYSLDSVEEAETEQPQEKEIPPPCLSLEPQETLQKVKNVLEQCKTCPGCPQEPASWGLCAASSDVSLQDPEEPSFCLEAEDDWEDPEALSSLLLFLNAPGYKASFRGLYDVALPWLSSVFRSFSDEEELTGRLAQARGAAKKAGLLMALARLCFLLGRLCSRRLKLSQARVYFEEALGALEGSFGDLFLVVAVYANLASIYRKQKNREKCAQVVPKAMALLLGTPDHICSTEAEGELLQLALRRAVGGQSLQAEARACFLLARHHVHLKQPEEALPFLERLLLLHRDSGAPEAAWLSDCYLLLADIYSRKCLPHLVLSCVKVASLRTRGSLAGSLRSVNLVLQNAPQPHSLPAQTSHYLRQALASLTPGTGQALRGPLYTSLAQLYSHHGCHGPAITFMTQAVEASAIAGVRAIVDHLVALAWLHVLHGQSPVALDILQSVRDAVVASEDQEGVIANMVAVALKRTGRTRQAAESYYRALRVARDLGQQRNQAVGLANFGALCLHAGASRLAQHYLLEAVRLFSRLPLGECGRDFTHVLLQLGHLCTRQGPAQQGKGYYEWALLVAVEMGHVESQLRAVQRLCHFYSAVMPSEAQCVIYHELQLSLACKVADKVLEGQLLETISQLYLSLGTERAYKSALDYTKRSLGIFIDLQKKEKEAHAWLQAGKIYYILRQSELVDLYIQVAQNVALYTGDPNLGLELFEAAGDIFFDGAWEREKAVSFYRDRALPLAVTTGNRKAELRLCNKLVALLATLEEPQEGLEFAHMALALSITLGDRLNERVAYHRLAALQHRLGHGELAEHFYLKALSLCNSPLEFDEETLYYVKVYLVLGDIIFYDLKDPFDAAGYYQLALAAAVDLGNKKAQLKIYTRLATIYHNFLLDREKSLFFYQKARTFATELNVRRVNLPPLPLCGWAPWLAPSHPR [SH3TC1] | 0.0532 | -0.47
9 | MDPRGTKRGAEKTEVAEPRNKLPRPAPSLPTDPALYSGPFPFYRRPSELGCFSLDAQRQYHGDARALRYYSPPPTNGPGPNFDLRDGYPDRYQPRDEEVQERLDHLLCWLLEHRGRLEGGPGWLAEAIVTWRGHLTKLLTTPYERQEGWQLAASRFQGTLYLSEVETPNARAQRLARPPLLRELMYMGYKFEQYMCADKPGSSPDPSGEVNTNVAFCSVLRSRLGSHPLLFSGEVDCTDPQAPSTQPPTCYVELKTSKEMHSPGQWRSFYRHKLLKWWAQSFLPGVPNVVAGFRNPDGFVSSLKTFPTMKMFEYVRNDRDGWNPSVCMNFCAAFLSFAQSTVVQDDPRLVHLFSWEPGGPVTVSVHQDAPYAFLPIWYVEAMTQDLPSPPKTPSPK [DXO] | -0.2 | 0.0451
